One substance from patent US20200284794A1 can be followed below.

The target of experiment [1] is Keratin 17 in HeLa cells (human) (UniProt Q04695). The experiment can be described thus: microfluidic cytometry (Moxi Go), methanol-fixed HeLa cells, E3 primary antibody, PE anti-mouse secondary.
Experiment [2] addresses Keratin 17 recombinant protein (human) (UniProt Q04695). The experiment can be described thus: sandwich ELISA: E3 coated 2 ug/mL, recombinant K17 calibrator 1.4 ng/mL, detection 2D10-HRP 1 ug/mL. (In general: An ELISA detects its analyte on a solid surface through an enzyme-linked reagent.)
The target is the same in experiment [3]. The experiment can be described thus: sandwich ELISA: E3 capture, 2D10-HRP detection, recombinant K17 calibrators.
The target is the same in experiment [4]. The experiment can be described thus: sandwich ELISA: E3 coated 2 ug/mL, recombinant K17 calibrator 37.0 ng/mL, detection 2D10-HRP 1 ug/mL.
Experiment [5] has the same target. Put plainly: sandwich ELISA: E3 coated 2 ug/mL, recombinant K17 calibrator 1000 ng/mL, detection 2D10-HRP 1 ug/mL.
Experiment [6] shares this target. The experiment can be described thus: sandwich ELISA: E3 coated 2 ug/mL, recombinant K17 calibrator 333.3 ng/mL, detection 2D10-HRP 1 ug/mL.
Experiment [7] has the same target. Put plainly: sandwich ELISA: E3 coated 2 ug/mL, recombinant K17 calibrator 12.3 ng/mL, detection 2D10-HRP 1 ug/mL.
Experiment [8] shares this target. Put plainly: sandwich ELISA: E3 coated 2 ug/mL, recombinant K17 calibrator 4.1 ng/mL, detection 2D10-HRP 1 ug/mL.
The target is the same in experiment [9]. Put plainly: sandwich ELISA: E3 coated 2 ug/mL, recombinant K17 calibrator 111.1 ng/mL, detection 2D10-HRP 1 ug/mL.

Take “mouse monoclonal-[E3] anti-human K17 antibody”: the % K17-positive cells in experiment [1] amounted to 90.4%. Further, the OD Avg. (450 nm) in [2] came to 0.084 OD; in experiment [4], 0.838 OD; in experiment [5], 3.59 OD; in experiment [6], 3.59 OD; in [7], 0.321 OD; in experiment [8] it was 0.141 OD. Further, in experiment [9], the OD Avg. (450 nm) came to 2.38 OD. Besides, the OD-1 (450 nm) in experiment [2] turned out to be 0.087 OD; in experiment [4], 0.844 OD; in experiment [5] it was 3.56 OD; in [6] it was 3.58 OD; in experiment [7], 0.323 OD; in experiment [8] it was 0.142 OD. Further, the OD-1 (450 nm) in [9] worked out at 2.47 OD. The OD-2 (450 nm) in experiment [2] was found to be 0.081 OD; in experiment [4], 0.832 OD; in [5] it was 3.62 OD; in [6] it was 3.6 OD; in [7], 0.318 OD; in experiment [8], 0.14 OD. Further, in [9], the OD-2 (450 nm) turned out to be 2.29 OD. Also, the limit of sensitivity in experiment [3] worked out at 1 ng/mL.
